Experimental data: PMC8266076

Tests used:
Experiment in all cases: fluorescence anisotropy
Settings in all cases: fluorescein-12-UTP incorporated during transcription; 50 mM Tris pH 7.5, 40 mM KCl, 10 mM MgCl2, 1 mM DTT, 10 nM fluorescein-labeled RNA, 21 C
[1] = system: A3Hhap II (Homo sapiens)
[2] = system: A3C-A3Hhap II (synthetic double domain chimera) (Homo sapiens (synthetic chimera))
[3] = system: A3G (Homo sapiens)

In the case of HIV-1 5'UTR RNA (nt 1-497), the Kd [1] is reported as 0.52 nM, the Kd [2] is reported as 0.03 nM and the Kd [3] is reported as 6.36 nM.
